Laboratory results reported in patent US7427498B2, “Composition, methods and reagents for the synthesis of a soluble form of human PHEX” (Universite De Montreal, priority 1999, dated 2008).
Entries after “also recorded” stand apart in the source; their conditions may differ.

T1: PTHrP107-139, P12272
T1 chain: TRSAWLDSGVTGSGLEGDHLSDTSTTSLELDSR


Experiments:
secPHEX = experiment: Inhibition of secPHEX enzymatic activity (cleavage of PTHrP107-139, RP-HPLC); format: biochemical, human; conditions: 0.001 M inhibitor added to the reaction mixture
Method: (§1) FIG. 6: Enzymatic assay for secPHEX. Purified secPHEX (2 μg) was incubated in the presence of 10 μg PTHrP107-139 and the reaction mixture analyzed by RP-HPLC.
(§2) An aliquot of purified PHEX containing 2 μg of protein was incubated for 15 min at 37° C. in a volume of 200 μl of 50 mM MES (2-(N-Morpholinoethanesulfonic acid, pH 6.5, containing 150 mM NaCl and 10 μg of PTHrP107-139 as a substrate. After the incubation period, the hydrolysis was stopped by the addition of trifluoroacetic acid to a final concentration of 0.1%. Identification of peptide products was performed by reverse phase high performance liquid chromatography (RP-HPLC) on a C18 μBondapak analytical column (Waters) with a UV detector set at 214 nm. Peptides were resolved with a linear gradient of 5% B to 85% B in 45 min at the flow rate of 0.4 ml/min [mobile phase A=0.1% trifluoroacetic acid; mobile phase B=80% acetonitrile (CH3CN), 0.1% trifluoroacetic acid].

PTHrP107-139, P12272 = biological target: T1, PTHrP107-139, P12272
PTHrP107-139 = experiment: Assay for the activity of PHEX: digestion of PTHrP107-139 by purified secPHEX, RP-HPLC; format: biochemical
Method: as §1, §2

| Molecule | inhibition of secPHEX enzymatic activity (degradation of PTHrP107-139) (secPHEX) | PTHrP107-139 peak on the chromatogram (RP-HPLC) after 15 min of incubation (PTHrP107-139, P12272) | PTHrP107-139 peak on the chromatogram, % of its original surface (PTHrP107-139; 2 μg secPHEX, 10 μg PTHrP107-139, 15 min at 37° C., 50 mM MES pH 6.5, 150 mM NaCl) [%] | enzymatic activity in other buffers (PTHrP107-139; Acetate, HEPES and Tris buffers covering a pH range from 4.0 to 8.5) | enzymatic activity on PTHrP107-139 (qualitative) (PTHrP107-139; purified secPHEX, conditions of Methods) |
| --- | --- | --- | --- | --- | --- |
| O=C(O)CN(CCN(CC(=O)O)CC(=O)O)CC(=O)O [EDTA] | totally inhibited; also recorded: fully inhibited |  |  |  |  |
| c1cnc2c(c1)ccc1cccnc12 [O-phenantrolin] | fully inhibited |  |  |  |  |
| secPHEX, soluble secreted form of recombinant human PHEX (construct 3, pCDNA3/RSV/PHEX-MutE) (protein) MEAETGSSVETGKKANRGTRIALVVFVLTVIAQQTTSQGLLSLQAKQEYCLKPECIEAAAAILSKVNLSVDPCDNFFRFACDGWISNNPIPEDMPSYGVYPWLRHNVDLKLKELLEKSISRRRDTEAIQKAKILYSSCMNEKAIEKADAKPLLHILRHSPFRWPVLESNIGPEGVWSERKFSLLQTLATFRGQYSNSVFIRLYVSPDDKASNEHILKLDQATLSLAVREDYLDNSTEAKSYRDALYKFMVDTAVLLGANSSRAEHDMKSVLRLEIKIAEIMIPHENRTSEAMYNKMNISELSAMIPQFDWLGYIKKVIDTRLYPHLKDISPSENVVVRVPQYFKDLFRILGSERKKTIANYLVWRMVYSRIPNLSRRFQYRWLEFSRVIQGTTTLLPQWDKCVNFIESALPYVVGKMFVDVYFQEDKKEMMEELVEGVRWAFIDMLEKENEWMDAGTKRKAKEKARAVLAKVGYPEFIMNDTHVNEDLKAIKFSEADYFGNVLQTRKYLAQSDFFWLRKAVPKTEWFTNPTTVNAFYSASTNQIRFPAGELQKPFFWGTEYPRSLSYGAIGVIVGHEFTHGFDNNGRKYDKNGNLDPWWSTESEEKFKEKTKCMINQYSNYYWKKAGLNVKGKRTLGENIADNGGLREAFRAYRKWINDRRQGLEEPLLPGITFTNNQLFFLSYAHVRCNSYRPEAAREQVQIGAHSPPQFRVNGAISNSEEFQKAFNCPPNSTMNRGMDSCRLW |  | PTHrP107-139 peak on the chromatogram was decreased to 15% of its original surface after only 15 min of incubation | 15 | Activity was also observed | active; also recorded: can degrade this peptide |
